Results as given in US9969998B2, “Compositions of adenosine deaminase-2 (ADA2), variants thereof and methods of using same” (Halozyme, Inc., priority 2014, dated 2018).

How the values were obtained:
[1] = Heparin-affinity chromatography (heparin-Sepharose, SDS-PAGE); assay type: binding; details: for Heparin Column Binding: compared to WT rHuADA2, 0.3 mg/mL protein
[2] = Heparin binding ELISA (heparin coated microtiter plate); details: for Average OD450, heparin binding ELISA: 3 μM protein; for Heparin Binding ELISA Average OD450: single and S265N combination variants (Table 34)
Procedure, shortened: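 Plates coated with 200 μg/mL heparin in Na2CO3 buffer pH 9.6 overnight at 4° C, then milk-blocked. FLAG-tagged rHuADA2 variants added at 3 μM for 2 h at room temperature. Bound protein detected with HRP-anti-FLAG and TMB, read as OD450.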

[3] = Adenosine deaminase (ADA) enzymatic activity assay kit; assay type: biochemical; details: for % of WT adenosine deaminase activity: Table 23; for % activity vs. WT: relative to rHuADA2 WT (Table 21); for Adenosine deaminase activity mU/ml / Adenosine deaminase activity ΔA/min / % of WT activity: purified protein at 5 μg/mL; for % of WT activity: compared to WT-ADA2
[4] = Thermal stability by differential scanning fluorimetry (DSF); assay type: physicochemical; details: for Tm, melting temperature by DSF: 0.1-1 mg/mL protein
Procedure, shortened: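 Tm was taken as the midpoint of the unfolding transition. WT and variant rHuADA2, PEGylated or not, at 0.1-1 mg/mL were run in triplicate with ROX thermal shift dye, ramped 25 to 99° C at 0.05° C/s. Fluorescence read at 580 nm excitation and 623 nm emission.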

[5] = PEGylated and non-PEGylated forms (Table 23)
[6] = protein diluted to 5 μg/mL, serially diluted 2 fold (Table 21)

heparin binding compared to WT [1]	Heparin Column Binding [1]	Average OD450, heparin binding ELISA ([2]; Set 2)	Heparin Binding ELISA Average OD450 [2]	% activity vs. WT [3] [%]	Average OD450, heparin binding ELISA ([2]; Set 1)	% of WT activity [3] [%]	Molecule	binding to heparin-coated plates compared to WT ADA2 [2]	enzymatic activity relative to WT rHuADA2 [3]	adenosine deaminase activity mU/mL [3, 5] [mU/mL]	% of WT adenosine deaminase activity [3] [%]	adenosine deaminase activity mU/mL [3, 6] [mU/mL]	ΔA/min, adenosine deaminase activity [3, 6]	Tm, melting temperature by DSF [4] [°C]	Adenosine deaminase activity mU/ml [3] [mU/ml]	Adenosine deaminase activity ΔA/min [3]	Tm higher than WT ADA2 [4] [°C]
–	–	0.55	2.31	100	0.49	100	WT ADA2: wild type recombinant human adenosine deaminase 2 with FLAG tag, mature ADA2 SEQ ID NO:5 (protein, listed as Homo sapiens, FLAG tag; ADA2 mature protein) IDETRAHLLLKEKMMRLGGRLVLNTKEELANERLMTLKIAEMKEAMRTLIFPPSMHFFQAKHLIERSQVFNILRMMPKGAALHLHDIGIVTMDWLVRNVTYRPHCHICFTPRGIMQFRFAHPTPRPSEKCSKWILLEDYRKRVQNVTEFDDSLLRNFTLVTQHPEVIYTNQNVVWSKFETIFFTISGLIHYAPVFRDYVFRSMQEFYEDNVLYMEIRARLLPVYELSGEHHDEEWSVKTYQEVAQKFVETHPEFIGIKIIYSDHRSKDVAVIAESIRMAMGLRIKFPTVVAGFDLVGHEDTGHSLHDYKEALMIPAKDGVKLPYFFHAGETDWQGTSIDRNILDALMLNTTRIGHGFALSKHPAVRTYSWKKDIPIEVCPISNQVLKLVSDLRNHPVATLMATGHPMVISSDDPAMFGAKGLSYDFYEVFMGIGGMKADLRTLKQLAMNSIKYSTLLESEKNTFMEIWKKRWDKFIADVATK	–	–	121.6	100	78	33.9	67.1	78	33.9 ΔA/min	–
attenuated heparin binding	Reduced	–	0.03	402.3	0.11	–	K374E: ADA2 variant SEQ ID NO:21 (protein, human ADA2 K371E, mature numbering) IDETRAHLLLKEKMMRLGGRLVLNTKEELANERLMTLKIAEMKEAMRTLIFPPSMHFFQAKHLIERSQVFNILRMMPKGAALHLHDIGIVTMDWLVRNVTYRPHCHICFTPRGIMQFRFAHPTPRPSEKCSKWILLEDYRKRVQNVTEFDDSLLRNFTLVTQHPEVIYTNQNVVWSKFETIFFTISGLIHYAPVFRDYVFRSMQEFYEDNVLYMEIRARLLPVYELSGEHHDEEWSVKTYQEVAQKFVETHPEFIGIKIIYSDHRSKDVAVIAESIRMAMGLRIKFPTVVAGFDLVGHEDTGHSLHDYKEALMIPAKDGVKLPYFFHAGETDWQGTSIDRNILDALMLNTTRIGHGFALSKHPAVRTYSWEKDIPIEVCPISNQVLKLVSDLRNHPVATLMATGHPMVISSDDPAMFGAKGLSYDFYEVFMGIGGMKADLRTLKQLAMNSIKYSTLLESEKNTFMEIWKKRWDKFIADVATK	attenuated binding to heparin	improved enzymatic activity	–	–	313.8	136.5	69.7	–	–	1.4
attenuated heparin binding	Reduced	–	0.87	345.9	0.15	–	K374D: ADA2 variant SEQ ID NO:20 (protein, human ADA2 K371D, mature numbering) IDETRAHLLLKEKMMRLGGRLVLNTKEELANERLMTLKIAEMKEAMRTLIFPPSMHFFQAKHLIERSQVFNILRMMPKGAALHLHDIGIVTMDWLVRNVTYRPHCHICFTPRGIMQFRFAHPTPRPSEKCSKWILLEDYRKRVQNVTEFDDSLLRNFTLVTQHPEVIYTNQNVVWSKFETIFFTISGLIHYAPVFRDYVFRSMQEFYEDNVLYMEIRARLLPVYELSGEHHDEEWSVKTYQEVAQKFVETHPEFIGIKIIYSDHRSKDVAVIAESIRMAMGLRIKFPTVVAGFDLVGHEDTGHSLHDYKEALMIPAKDGVKLPYFFHAGETDWQGTSIDRNILDALMLNTTRIGHGFALSKHPAVRTYSWDKDIPIEVCPISNQVLKLVSDLRNHPVATLMATGHPMVISSDDPAMFGAKGLSYDFYEVFMGIGGMKADLRTLKQLAMNSIKYSTLLESEKNTFMEIWKKRWDKFIADVATK	attenuated binding to heparin	improved enzymatic activity	162.9	134	269.8	117.3	66.8	–	–	–

Second part, the molecule before the results:

Molecule	heparin binding compared to WT [1]	Heparin Column Binding [1]	Average OD450, heparin binding ELISA ([2]; Set 2)	Heparin Binding ELISA Average OD450 [2]	% activity vs. WT [3] [%]	Average OD450, heparin binding ELISA ([2]; Set 1)	% of WT activity [3] [%]	binding to heparin-coated plates compared to WT ADA2 [2]	enzymatic activity relative to WT rHuADA2 [3]	adenosine deaminase activity mU/mL [3, 5] [mU/mL]	% of WT adenosine deaminase activity [3] [%]	adenosine deaminase activity mU/mL [3, 6] [mU/mL]	ΔA/min, adenosine deaminase activity [3, 6]	Tm, melting temperature by DSF [4] [°C]	Adenosine deaminase activity mU/ml [3] [mU/ml]	Adenosine deaminase activity ΔA/min [3]	Tm higher than WT ADA2 [4] [°C]
R23E: ADA2 variant SEQ ID NO:30 (protein, human ADA2 R20E, mature numbering) IDETRAHLLLKEKMMRLGGELVLNTKEELANERLMTLKIAEMKEAMRTLIFPPSMHFFQAKHLIERSQVFNILRMMPKGAALHLHDIGIVTMDWLVRNVTYRPHCHICFTPRGIMQFRFAHPTPRPSEKCSKWILLEDYRKRVQNVTEFDDSLLRNFTLVTQHPEVIYTNQNVVWSKFETIFFTISGLIHYAPVFRDYVFRSMQEFYEDNVLYMEIRARLLPVYELSGEHHDEEWSVKTYQEVAQKFVETHPEFIGIKIIYSDHRSKDVAVIAESIRMAMGLRIKFPTVVAGFDLVGHEDTGHSLHDYKEALMIPAKDGVKLPYFFHAGETDWQGTSIDRNILDALMLNTTRIGHGFALSKHPAVRTYSWKKDIPIEVCPISNQVLKLVSDLRNHPVATLMATGHPMVISSDDPAMFGAKGLSYDFYEVFMGIGGMKADLRTLKQLAMNSIKYSTLLESEKNTFMEIWKKRWDKFIADVATK	attenuated heparin binding	Reduced	0.2	0.71	207.1	–	–	attenuated binding to heparin	improved enzymatic activity	129.9	106.8	161.6	70.2	65.2	–	–	–
PEG-K374D: rHuADA2-K374D (SEQ ID NO:20) PEGylated on surface exposed lysines with linear PEG-20K (conjugate, linear PEG-20K on surface lysines; human ADA2 K371D, mature numbering) IDETRAHLLLKEKMMRLGGRLVLNTKEELANERLMTLKIAEMKEAMRTLIFPPSMHFFQAKHLIERSQVFNILRMMPKGAALHLHDIGIVTMDWLVRNVTYRPHCHICFTPRGIMQFRFAHPTPRPSEKCSKWILLEDYRKRVQNVTEFDDSLLRNFTLVTQHPEVIYTNQNVVWSKFETIFFTISGLIHYAPVFRDYVFRSMQEFYEDNVLYMEIRARLLPVYELSGEHHDEEWSVKTYQEVAQKFVETHPEFIGIKIIYSDHRSKDVAVIAESIRMAMGLRIKFPTVVAGFDLVGHEDTGHSLHDYKEALMIPAKDGVKLPYFFHAGETDWQGTSIDRNILDALMLNTTRIGHGFALSKHPAVRTYSWDKDIPIEVCPISNQVLKLVSDLRNHPVATLMATGHPMVISSDDPAMFGAKGLSYDFYEVFMGIGGMKADLRTLKQLAMNSIKYSTLLESEKNTFMEIWKKRWDKFIADVATK	–	–	–	–	–	–	–	–	–	142	116.8	–	–	67.81	–	–	–
S265N: ADA2 variant SEQ ID NO:54 (protein, human ADA2 S262N, mature numbering) IDETRAHLLLKEKMMRLGGRLVLNTKEELANERLMTLKIAEMKEAMRTLIFPPSMHFFQAKHLIERSQVFNILRMMPKGAALHLHDIGIVTMDWLVRNVTYRPHCHICFTPRGIMQFRFAHPTPRPSEKCSKWILLEDYRKRVQNVTEFDDSLLRNFTLVTQHPEVIYTNQNVVWSKFETIFFTISGLIHYAPVFRDYVFRSMQEFYEDNVLYMEIRARLLPVYELSGEHHDEEWSVKTYQEVAQKFVETHPEFIGIKIIYNDHRSKDVAVIAESIRMAMGLRIKFPTVVAGFDLVGHEDTGHSLHDYKEALMIPAKDGVKLPYFFHAGETDWQGTSIDRNILDALMLNTTRIGHGFALSKHPAVRTYSWKKDIPIEVCPISNQVLKLVSDLRNHPVATLMATGHPMVISSDDPAMFGAKGLSYDFYEVFMGIGGMKADLRTLKQLAMNSIKYSTLLESEKNTFMEIWKKRWDKFIADVATK	–	–	–	0.88	–	–	211	attenuated binding to heparin coated plates	–	–	–	–	–	60.8	164.8	71.7 ΔA/min	–
